The values that follow come from article PMC10987633, “Structural basis for RAD18 regulation by MAGEA4 and its implications for RING ubiquitin ligase binding by MAGE family proteins” (The EMBO Journal, 2024).

The Kd is the concentration at which binding is half-saturated. Read a low Kd as higher affinity.

First the molecules themselves.
B1: full-length MAGEA4 wild type (purified) (natural protein, human, UniProt P43358 1-317, looked up)
chain: MSSEQKSQHCKPEEGVEAQEEALGLVGAQAPTTEEQEAAVSSSSPLVPGTLEEVPAAESAGPPQSPQGASALPTTISFTCWRQPNEGSSSQEEEGPSTSPDAESLFREALSNKVDELAHFLLRKYRAKELVTKAEMLERVIKNYKRCFPVIFGKASESLKMIFGIDVKEVDPASNTYTLVTCLGLSYDGLLGNNQIFPKTGLLIIVLGTIAMEGDSASEEEIWEELGVMGVYDGREHTVYGEPRKLLTQDWVQENYLEYRQVPGSNPARYEFLWGPRALAETSYVKVLEHVVRVNARVRIAYPSLREAALLEEEEGV
notes: MAGEA4, human, Uniprot P43358, full length; Cloned into PET15C; No removal of the His tag is described; the diGly search database lists 'His-tagged MAGEA4'; also called MAGEA4 WT; FL MAGEA4; source: E. coli BL21star, purified (TALON, SEC)

Conditions in all cases: both partners purified
Test [1] has as its target T1, His-tagged full-length RAD18 wild type (human, UniProt Q9NS91 1-495).
T1 construct: RAD18, RING E3 ubiquitin ligase, human, Uniprot Q9NS91, residues 1-495, full length; Cloned into PET15C; Dimer in the RAD18/RAD6 complex by AUC and mass photometry; also called RAD18 WT; FL RAD18; source: E. coli BL21star; co-expressed with untagged MAGEA4, in cleared lysate (His pull-down); co-expressed with RAD6 and purified as RAD18/RAD6 (TALON, SEC); not shown: His tag, N-terminal, kept
In words: cross-linking; XL-MS of RAD18/RAD6 incubated with 5x molar excess of full-length MAGEA4 for 1 h at 4 °C before BS3; trypsin, LC-MS/MS.

Test [2] has as its target RAD18/RAD6 complex (purified) (human, UniProt Q9NS91 1-495; P63146 1-152, 2:1 RAD18:RAD6 asymmetric dimer as stated; Zn2+ bound (RING, zinc finger); RAD6 paralogue not given, UBE2B inferred from 2YBF). In words: mass photometry; OneMP mass photometer, SEC buffer; RAD18/RAD6, and RAD18/RAD6/MAGEA4 first cross-linked with BS3 (30 min on ice) and separated on an S200 3.2/300 column, peak fraction measured.

Test [3] has as its target RAD6 wild type (purified alone) (human, UniProt P63146 1-152, paralogue not given; UBE2B chosen because the paper's RAD6/R6BD reference structure 2YBF is UBE2B). Nature of the test: ITC; RAD18 R6BD peptide at 200 µM titrated into protein at 20 µM; MicroCal ITC200, 25 °C; SEC buffer (100 mM NaCl, 20 mM HEPES pH 7.5, 1 mM TCEP). On the technique in general: Isothermal titration calorimetry measures the heat released or taken up as one component is titrated into another.

For test [4], the target named is B1. The description is as above.
Test [5] deals with T2, full-length MAGEA4 M161D (human, UniProt P43358 1-317, M161D).
T2 construct: MAGEA4, human, Uniprot P43358, full length, with M161D; source: E. coli BL21star, purified (TALON, SEC)
T2 sequence (looked up): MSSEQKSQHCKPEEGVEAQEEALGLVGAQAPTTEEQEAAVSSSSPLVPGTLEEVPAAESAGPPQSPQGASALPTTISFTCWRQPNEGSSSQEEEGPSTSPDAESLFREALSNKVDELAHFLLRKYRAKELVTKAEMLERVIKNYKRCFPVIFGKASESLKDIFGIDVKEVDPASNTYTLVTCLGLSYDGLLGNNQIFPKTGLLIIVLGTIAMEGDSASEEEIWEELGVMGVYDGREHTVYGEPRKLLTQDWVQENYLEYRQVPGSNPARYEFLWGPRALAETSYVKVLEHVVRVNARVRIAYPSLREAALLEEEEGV
Described as above.

Sequence of RAD18/RAD6 complex (purified) (Q9NS91 whole entry, chain 1 of 2): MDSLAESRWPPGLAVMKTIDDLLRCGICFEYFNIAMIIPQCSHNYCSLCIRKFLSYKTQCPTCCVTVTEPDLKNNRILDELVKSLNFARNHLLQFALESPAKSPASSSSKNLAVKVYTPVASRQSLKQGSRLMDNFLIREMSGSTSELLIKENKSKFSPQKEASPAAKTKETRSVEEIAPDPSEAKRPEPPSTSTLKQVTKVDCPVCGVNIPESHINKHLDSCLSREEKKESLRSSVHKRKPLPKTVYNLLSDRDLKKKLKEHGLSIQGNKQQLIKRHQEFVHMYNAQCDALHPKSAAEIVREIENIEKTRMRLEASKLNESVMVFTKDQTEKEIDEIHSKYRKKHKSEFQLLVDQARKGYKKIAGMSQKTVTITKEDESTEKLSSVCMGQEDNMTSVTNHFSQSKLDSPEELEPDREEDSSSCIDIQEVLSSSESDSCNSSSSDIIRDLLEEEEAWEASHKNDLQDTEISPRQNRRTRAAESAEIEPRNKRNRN
Sequence of RAD18/RAD6 complex (purified) (B2R503 whole entry, chain 2 of 2, further chain): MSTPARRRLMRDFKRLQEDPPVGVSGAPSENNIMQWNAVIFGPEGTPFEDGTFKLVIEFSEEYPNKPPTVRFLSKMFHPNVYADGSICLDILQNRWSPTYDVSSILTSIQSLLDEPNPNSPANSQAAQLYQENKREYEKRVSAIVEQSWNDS
T1 sequence (Q9NS91 whole entry, the tested form may be a part): as the sequence (Q9NS91 whole entry, chain 1 of 2) above

On to B1, for which the binding result in test [1] was “binds”. Also, the “stoichiometry N” value in test [2] is 1 MAGEA4 per RAD18/RAD6 complex.

B2: RAD18 R6BD peptide (residues 340-366) (peptide, UniProt Q9NS91 340-366, looked up)
peptide: SKYRKKHKSEFQLLVDQARKGYKKIAG
notes: also called 27 amino acid peptide corresponding to the RAD18 R6BD; source: synthetic peptide, bought: GenScript
Regarding B2, the Kd in test [3] was 25300 nM; in test [4] it was 405 nM; in test [5] it was 1660 nM.
